Measurements as given in patent publication US20150125397A1 (AbbVie / Abbott, published 2015).

What was measured:
[1] = target: mouse IgM (mouse, UniProt P01872 1-454); assay: IgM binding ELISA, mIgM coated on plate
[2] = target: mouse IgM B cell receptor on primary murine B cells (mouse); assay: cell-based or functional assay

mouse IgM, sequence (P01872 whole entry): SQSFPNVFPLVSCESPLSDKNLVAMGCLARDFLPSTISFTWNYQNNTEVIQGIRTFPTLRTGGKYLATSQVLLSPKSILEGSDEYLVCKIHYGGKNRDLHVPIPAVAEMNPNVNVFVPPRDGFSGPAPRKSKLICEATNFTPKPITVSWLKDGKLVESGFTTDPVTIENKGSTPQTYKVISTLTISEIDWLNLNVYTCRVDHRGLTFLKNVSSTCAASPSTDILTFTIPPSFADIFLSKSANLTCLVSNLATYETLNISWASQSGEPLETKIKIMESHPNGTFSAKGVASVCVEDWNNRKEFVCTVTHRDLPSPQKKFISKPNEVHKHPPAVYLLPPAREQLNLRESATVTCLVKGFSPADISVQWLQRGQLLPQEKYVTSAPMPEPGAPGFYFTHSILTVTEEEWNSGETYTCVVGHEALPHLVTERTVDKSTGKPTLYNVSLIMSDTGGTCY

Binder	EC50 [1]	^3H incorporation, AM14 TLR9-/- B cells [2]	^3H incorporation, AM14 WT B cells [2]
DVD3756 (bispecific antibody, human IgG1, kappa, Four-chain DVD-Ig) heavy: not shown light: NTVMTQSPTSMFISVGDRVTMNCKASQNVGSDVDWYQQKTGQSPKLLISGTSNRYTGVPDRFTGSGSGTDFTLTISNMQAEDLAVYYCLQYNYNPTFGAGTKLELKRGGSGGGGSGDVVMTQTPLSLPVSLGDQASISCRSSQSLVHSNGNTYLHWYLQKPGQSPKLLIYKVSNRFSGVPDRFSGSGSGTDFTLKISRVEAEDLGAYFCSQSTHVPYTFGGPTRLEIKRTVAAPSVFIFPPSDEQLKSGTASVVCLLNNFYPREAKVQWKVDNALQSGNSQESVTEQDSKDSTYSLSSTLTLSKADYEKHKVYACEVTHQGLSSPVTKSFNRGEC	0.0331 µg/mL	459	7790
DVD3751 (bispecific antibody, human IgG1, kappa, Four-chain DVD-Ig) heavy: not shown light: DVVMTQTPLSLPVSLGDQASISCRSSQSLVHSNGNTYLHWYLQKPGQSPKLLIYKVSNRFSGVPDRFSGSGSGTDFTLKISRVEAEDLGAYFCSQSTHVPYTFGGPTRLEIKRGGSGGGGSGNTVMTQSPTSMFISVGDRVTMNCKASQNVGSDVDWYQQKTGQSPKLLISGTSNRYTGVPDRFTGSGSGTDFTLTISNMQAEDLAVYYCLQYNYNPTFGAGTKLELKRTVAAPSVFIFPPSDEQLKSGTASVVCLLNNFYPREAKVQWKVDNALQSGNSQESVTEQDSKDSTYSLSSTLTLSKADYEKHKVYACEVTHQGLSSPVTKSFNRGEC	0.191 µg/mL	1180	35600
DVD3755 (bispecific antibody, human IgG1, kappa, Four-chain DVD-Ig) heavy: not shown light: DVVMTQTPLSLPVSLGDQASISCRSSQSLVHSNGNTYLHWYLQKPGQSPKLLIYKVSNRFSGVPDRFSGSGSGTDFTLKISRVEAEDLGAYFCSQSTHVPYTFGGPTRLEIKRTVAAPNTVMTQSPTSMFISVGDRVTMNCKASQNVGSDVDWYQQKTGQSPKLLISGTSNRYTGVPDRFTGSGSGTDFTLTISNMQAEDLAVYYCLQYNYNPTFGAGTKLELKRTVAAPSVFIFPPSDEQLKSGTASVVCLLNNFYPREAKVQWKVDNALQSGNSQESVTEQDSKDSTYSLSSTLTLSKADYEKHKVYACEVTHQGLSSPVTKSFNRGEC	0.0971 µg/mL	402	8500
DVD3752 (bispecific antibody, human IgG1, kappa, Four-chain DVD-Ig) heavy: not shown light: DVVMTQTPLSLPVSLGDQASISCRSSQSLVHSNGNTYLHWYLQKPGQSPKLLIYKVSNRFSGVPDRFSGSGSGTDFTLKISRVEAEDLGAYFCSQSTHVPYTFGGPTRLEIKRTVAAPNTVMTQSPTSMFISVGDRVTMNCKASQNVGSDVDWYQQKTGQSPKLLISGTSNRYTGVPDRFTGSGSGTDFTLTISNMQAEDLAVYYCLQYNYNPTFGAGTKLELKRTVAAPSVFIFPPSDEQLKSGTASVVCLLNNFYPREAKVQWKVDNALQSGNSQESVTEQDSKDSTYSLSSTLTLSKADYEKHKVYACEVTHQGLSSPVTKSFNRGEC	0.205 µg/mL	512	12700
DVD3754 (bispecific antibody, human IgG1, kappa, Four-chain DVD-Ig; also called IgM/DNA DVD3754) heavy: not shown light: DVVMTQTPLSLPVSLGDQASISCRSSQSLVHSNGNTYLHWYLQKPGQSPKLLIYKVSNRFSGVPDRFSGSGSGTDFTLKISRVEAEDLGAYFCSQSTHVPYTFGGPTRLEIKRTVAAPSVFIFPPNTVMTQSPTSMFISVGDRVTMNCKASQNVGSDVDWYQQKTGQSPKLLISGTSNRYTGVPDRFTGSGSGTDFTLTISNMQAEDLAVYYCLQYNYNPTFGAGTKLELKRTVAAPSVFIFPPSDEQLKSGTASVVCLLNNFYPREAKVQWKVDNALQSGNSQESVTEQDSKDSTYSLSSTLTLSKADYEKHKVYACEVTHQGLSSPVTKSFNRGEC	0.117 µg/mL	1600	35200
DVD3759 (bispecific antibody, human IgG1, kappa, Four-chain DVD-Ig) heavy: not shown light: NTVMTQSPTSMFISVGDRVTMNCKASQNVGSDVDWYQQKTGQSPKLLISGTSNRYTGVPDRFTGSGSGTDFTLTISNMQAEDLAVYYCLQYNYNPTFGAGTKLELKRTVAAPSVFIFPPDVVMTQTPLSLPVSLGDQASISCRSSQSLVHSNGNTYLHWYLQKPGQSPKLLIYKVSNRFSGVPDRFSGSGSGTDFTLKISRVEAEDLGAYFCSQSTHVPYTFGGPTRLEIKRTVAAPSVFIFPPSDEQLKSGTASVVCLLNNFYPREAKVQWKVDNALQSGNSQESVTEQDSKDSTYSLSSTLTLSKADYEKHKVYACEVTHQGLSSPVTKSFNRGEC	0.0412 µg/mL	970	18600
DVD3757 (bispecific antibody, human IgG1, kappa, Four-chain DVD-Ig) heavy: not shown light: NTVMTQSPTSMFISVGDRVTMNCKASQNVGSDVDWYQQKTGQSPKLLISGTSNRYTGVPDRFTGSGSGTDFTLTISNMQAEDLAVYYCLQYNYNPTFGAGTKLELKRTVAAPDVVMTQTPLSLPVSLGDQASISCRSSQSLVHSNGNTYLHWYLQKPGQSPKLLIYKVSNRFSGVPDRFSGSGSGTDFTLKISRVEAEDLGAYFCSQSTHVPYTFGGPTRLEIKRTVAAPSVFIFPPSDEQLKSGTASVVCLLNNFYPREAKVQWKVDNALQSGNSQESVTEQDSKDSTYSLSSTLTLSKADYEKHKVYACEVTHQGLSSPVTKSFNRGEC	0.0418 µg/mL	382	4060
DVD3760 (bispecific antibody, human IgG1, kappa, Four-chain DVD-Ig) heavy: not shown light: NTVMTQSPTSMFISVGDRVTMNCKASQNVGSDVDWYQQKTGQSPKLLISGTSNRYTGVPDRFTGSGSGTDFTLTISNMQAEDLAVYYCLQYNYNPTFGAGTKLELKRTVAAPDVVMTQTPLSLPVSLGDQASISCRSSQSLVHSNGNTYLHWYLQKPGQSPKLLIYKVSNRFSGVPDRFSGSGSGTDFTLKISRVEAEDLGAYFCSQSTHVPYTFGGPTRLEIKRTVAAPSVFIFPPSDEQLKSGTASVVCLLNNFYPREAKVQWKVDNALQSGNSQESVTEQDSKDSTYSLSSTLTLSKADYEKHKVYACEVTHQGLSSPVTKSFNRGEC	0.0353 µg/mL	302	4340
